From US20240294670A1 (University of Texas, published 2024)

Key:
Assay in all cases: anti-His co-IP of rCHI3L1 from Kupffer cell lysate, MS; listed under 'proteins bound to CHI3L1'
Q3UEQ9_MOUSE = molecular target: T1, Q3UEQ9_MOUSE (mouse, UniProt Q3UEQ9 28-926)
T1 construct: also called tr|Q3UEQ9|Q3UEQ9_MOUSE
T1 sequence: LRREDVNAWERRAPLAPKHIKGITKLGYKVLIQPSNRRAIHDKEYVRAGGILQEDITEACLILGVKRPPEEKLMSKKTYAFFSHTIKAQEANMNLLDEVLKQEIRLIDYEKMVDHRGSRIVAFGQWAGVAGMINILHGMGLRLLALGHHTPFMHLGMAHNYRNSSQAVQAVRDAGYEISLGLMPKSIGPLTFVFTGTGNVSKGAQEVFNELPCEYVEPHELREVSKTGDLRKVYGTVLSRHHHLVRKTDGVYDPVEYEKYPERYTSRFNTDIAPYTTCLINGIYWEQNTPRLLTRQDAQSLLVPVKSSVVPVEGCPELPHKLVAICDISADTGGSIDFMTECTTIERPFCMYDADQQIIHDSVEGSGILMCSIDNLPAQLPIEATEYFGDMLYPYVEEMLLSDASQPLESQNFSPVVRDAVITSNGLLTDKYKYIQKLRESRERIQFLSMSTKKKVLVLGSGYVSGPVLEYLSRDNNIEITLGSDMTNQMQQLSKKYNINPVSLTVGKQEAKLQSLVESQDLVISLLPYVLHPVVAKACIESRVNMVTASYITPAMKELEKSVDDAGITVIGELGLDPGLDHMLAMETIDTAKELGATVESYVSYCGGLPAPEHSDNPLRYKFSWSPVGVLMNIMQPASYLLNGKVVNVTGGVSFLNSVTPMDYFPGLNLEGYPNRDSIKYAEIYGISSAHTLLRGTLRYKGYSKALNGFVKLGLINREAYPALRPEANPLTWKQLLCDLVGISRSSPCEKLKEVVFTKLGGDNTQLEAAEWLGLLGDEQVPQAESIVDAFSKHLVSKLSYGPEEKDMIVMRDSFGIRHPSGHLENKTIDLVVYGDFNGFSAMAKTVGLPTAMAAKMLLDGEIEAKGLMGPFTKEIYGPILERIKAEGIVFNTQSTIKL
Procedure: (§1) CHI3L1 interacts with CD44 on KCs. To further understand how CHI3L1 mediates the function of KCs to recruit platelets, the inventors set out to identify its receptor on KCs. They isolated KCs from WT mice treated with APAP for 3 h and incubated the cells with His-tagged rCHI3L1. The cell lysate was subjected to immunoprecipitation using an anti-His antibody. The “pulled down” fraction was subjected to LC/MS analyses. A partial list of proteins identified, including CHI3L1 itself, is shown in (Extended Data Table 1). Because CD44 is a cell membrane protein, the inventors decided to investigate it is a receptor for CHI3L1. They performed/immunoprecipitation experiments using liver homogenates obtained from WT and CD44^{-/-} mice after APAP treatment. […] Moreover, the inventors incubated rhCHI3L1 with human CD44 and then immunoprecipitated with an anti-CD44 antibody. The data confirmed a direct binding between CHI3L1 and CD44 (FIG. 3C). Consistent with the notion that many cell types express CD44, they detected CD44 express on various hepatic non-parenchymal cells (NPCs) except B cells and DCs (summarized in Extended Data Table 2). However, when they incubated liver NPCs with His-tagged rCHI3L1, the inventors observed that the only CD44-expressing cells that could bind to CHI3L1 were KCs (FIG. 3D).

Q3UJ34_MOUSE = molecular target: T2, Q3UJ34_MOUSE (mouse, UniProt Q3UJ34 1-412)
T2 construct: also called tr|Q3UJ34|Q3UJ34_MOUSE
T2 sequence: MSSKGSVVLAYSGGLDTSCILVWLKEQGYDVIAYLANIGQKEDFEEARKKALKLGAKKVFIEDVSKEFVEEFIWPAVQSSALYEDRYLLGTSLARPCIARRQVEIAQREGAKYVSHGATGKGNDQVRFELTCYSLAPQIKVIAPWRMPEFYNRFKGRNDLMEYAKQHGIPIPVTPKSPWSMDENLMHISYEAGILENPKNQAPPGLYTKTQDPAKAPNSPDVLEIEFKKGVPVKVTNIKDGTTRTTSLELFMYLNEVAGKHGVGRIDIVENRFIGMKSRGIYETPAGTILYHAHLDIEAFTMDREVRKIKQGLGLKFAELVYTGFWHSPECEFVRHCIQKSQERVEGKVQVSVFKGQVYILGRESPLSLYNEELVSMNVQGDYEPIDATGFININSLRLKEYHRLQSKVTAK
Procedure: as §1

Q3UA81_MOUSE = molecular target: T3, Q3UA81_MOUSE (mouse, UniProt Q3UA81 2-462)
T3 construct: also called tr|Q3UA81|Q3UA81_MOUSE
T3 sequence: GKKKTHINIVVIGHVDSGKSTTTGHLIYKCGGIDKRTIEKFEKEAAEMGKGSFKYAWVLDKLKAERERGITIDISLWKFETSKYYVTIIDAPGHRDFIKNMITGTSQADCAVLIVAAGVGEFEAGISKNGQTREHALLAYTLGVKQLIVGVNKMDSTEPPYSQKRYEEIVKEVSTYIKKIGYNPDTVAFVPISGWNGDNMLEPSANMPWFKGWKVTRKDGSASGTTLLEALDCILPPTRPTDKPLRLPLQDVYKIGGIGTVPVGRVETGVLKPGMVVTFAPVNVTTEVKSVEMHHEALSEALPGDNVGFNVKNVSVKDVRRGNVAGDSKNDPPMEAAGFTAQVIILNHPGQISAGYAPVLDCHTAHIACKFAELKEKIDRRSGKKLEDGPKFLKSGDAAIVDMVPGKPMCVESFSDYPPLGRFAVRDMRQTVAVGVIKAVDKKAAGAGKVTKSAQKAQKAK
Procedure: as §1

Measured: binding result

B1: recombinant mouse CHI3L1 (ligand)
chain: not shown
notes: His-tagged; also called mCHI3L1; mChi3l1
binds: Q3UEQ9_MOUSE | Q3UJ34_MOUSE | Q3UA81_MOUSE
